Data published in patent US20140087995A1 (published 2014).
Numbered stars: 1 amine (or outer) side, 2 acyl side, 3 side chain; on linkers, the order of the positions; unused ones are H or OH. Bridge positions count the residues as written; N and C are the ends. Side chains are listed from the residue outwards. Ends that are not written are not given here. * marks the point of attachment. C20 diacid = O=C(O)CCCCCCCCCCCCCCCCCCC(=O)*; γGlu = O=C(O)[C@H](CCC(=O)[*:2])N[*:1]; AEEA = NCCOCCOCC(=O)O

T1: human amylin receptor (amylin 3(a) receptor: human calcitonin receptor with RAMP-3) (human, UniProt P30988 25-474; O60896 24-148)
T1 construct: whole, on cells; also called hAmylin-R; hAmylinR
T1 sequence (looked up) 1: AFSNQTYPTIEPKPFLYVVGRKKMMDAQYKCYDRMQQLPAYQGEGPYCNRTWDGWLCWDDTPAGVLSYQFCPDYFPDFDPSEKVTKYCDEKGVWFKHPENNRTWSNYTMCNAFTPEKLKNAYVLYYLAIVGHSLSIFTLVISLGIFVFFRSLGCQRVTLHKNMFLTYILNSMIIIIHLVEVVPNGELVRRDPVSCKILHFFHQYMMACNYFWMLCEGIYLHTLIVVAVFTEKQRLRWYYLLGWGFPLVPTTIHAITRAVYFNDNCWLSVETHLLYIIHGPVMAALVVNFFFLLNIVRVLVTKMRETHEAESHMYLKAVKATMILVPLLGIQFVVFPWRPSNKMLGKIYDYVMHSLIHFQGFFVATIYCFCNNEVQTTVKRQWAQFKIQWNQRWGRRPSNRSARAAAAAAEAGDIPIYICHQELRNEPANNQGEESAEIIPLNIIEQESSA
T1 sequence (looked up) 2: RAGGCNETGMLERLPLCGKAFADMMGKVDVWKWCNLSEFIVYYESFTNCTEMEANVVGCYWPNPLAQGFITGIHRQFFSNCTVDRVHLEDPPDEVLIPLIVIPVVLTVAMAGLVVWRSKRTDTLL

B1: N^ε1-[2-[2-[2-[[2-[2-[2-[[(4S)-4-carboxy-4-(19-carboxynonadecanoylamino)butanoyl]amino]ethoxy]ethoxy]acetyl]amino]ethoxy]ethoxy]acetyl]-[Arg17,Pro21,Pro27,His34 … (peptide)
peptide: K([AEEA-AEEA-γGlu-C20 diacid])CNTATCATQRLANFLRHSSPNFGAIPSSTNVGHNTY-NH2
modifications: disulfide 2-7; N-terminus assumed
SMILES: CC[C@H](C)[C@H](NC(=O)[C@H](C)NC(=O)CNC(=O)[C@H](Cc1ccccc1)NC(=O)[C@H](CC(N)=O)NC(=O)[C@@H]1CCCN1C(=O)[C@H](CO)NC(=O)[C@H](CO)NC(=O)[C@H](Cc1c[nH]cn1)NC(=O)[C@H](CCCNC(=N)N)NC(=O)[C@H](CC(C)C)NC(=O)[C@H](Cc1ccccc1)NC(=O)[C@H](CC(N)=O)NC(=O)[C@H](C)NC(=O)[C@H](CC(C)C)NC(=O)[C@H](CCCNC(=N)N)NC(=O)[C@H](CCC(N)=O)NC(=O)[C@@H](NC(=O)[C@H](C)NC(=O)[C@@H]1CSSC[C@H](NC(=O)[C@@H](N)CCCCNC(=O)COCCOCCNC(=O)COCCOCCNC(=O)CC[C@H](NC(=O)CCCCCCCCCCCCCCCCCCC(=O)O)C(=O)O)C(=O)N[C@@H](CC(N)=O)C(=O)N[C@@H]([C@@H](C)O)C(=O)N[C@@H](C)C(=O)N[C@@H]([C@@H](C)O)C(=O)N1)[C@@H](C)O)C(=O)N1CCC[C@H]1C(=O)N[C@@H](CO)C(=O)N[C@@H](CO)C(=O)N[C@H](C(=O)N[C@@H](CC(N)=O)C(=O)N[C@H](C(=O)NCC(=O)N[C@@H](Cc1c[nH]cn1)C(=O)N[C@@H](CC(N)=O)C(=O)N[C@H](C(=O)N[C@@H](Cc1ccc(O)cc1)C(N)=O)[C@@H](C)O)C(C)C)[C@@H](C)O
notes: also called 97; compound 97
B2: N^ε1-[2-[2-[2-[[2-[2-[2-[[(4S)-4-carboxy-4-(19-carboxynonadecanoylamino)butanoyl]amino]ethoxy]ethoxy]acetyl]amino]ethoxy]ethoxy]acetyl]-[Arg17,Pro21,Pro27,Pro31 … (peptide)
peptide: K([AEEA-AEEA-γGlu-C20 diacid])CNTATCATQRLANFLRHSSPNFGAIPSSTPVGSNTY-NH2
modifications: disulfide 2-7; N-terminus assumed
SMILES: CC[C@H](C)[C@H](NC(=O)[C@H](C)NC(=O)CNC(=O)[C@H](Cc1ccccc1)NC(=O)[C@H](CC(N)=O)NC(=O)[C@@H]1CCCN1C(=O)[C@H](CO)NC(=O)[C@H](CO)NC(=O)[C@H](Cc1c[nH]cn1)NC(=O)[C@H](CCCNC(=N)N)NC(=O)[C@H](CC(C)C)NC(=O)[C@H](Cc1ccccc1)NC(=O)[C@H](CC(N)=O)NC(=O)[C@H](C)NC(=O)[C@H](CC(C)C)NC(=O)[C@H](CCCNC(=N)N)NC(=O)[C@H](CCC(N)=O)NC(=O)[C@@H](NC(=O)[C@H](C)NC(=O)[C@@H]1CSSC[C@H](NC(=O)[C@@H](N)CCCCNC(=O)COCCOCCNC(=O)COCCOCCNC(=O)CC[C@H](NC(=O)CCCCCCCCCCCCCCCCCCC(=O)O)C(=O)O)C(=O)N[C@@H](CC(N)=O)C(=O)N[C@@H]([C@@H](C)O)C(=O)N[C@@H](C)C(=O)N[C@@H]([C@@H](C)O)C(=O)N1)[C@@H](C)O)C(=O)N1CCC[C@H]1C(=O)N[C@@H](CO)C(=O)N[C@@H](CO)C(=O)N[C@H](C(=O)N1CCC[C@H]1C(=O)N[C@H](C(=O)NCC(=O)N[C@@H](CO)C(=O)N[C@@H](CC(N)=O)C(=O)N[C@H](C(=O)N[C@@H](Cc1ccc(O)cc1)C(N)=O)[C@@H](C)O)C(C)C)[C@@H](C)O
notes: also called 96; compound 96
B3: N^ε1-[2-[2-[2-[[2-[2-[2-[[(4S)-4-carboxy-4-(19-carboxynonadecanoylamino)butanoyl]amino]ethoxy]ethoxy]acetyl]amino]ethoxy]ethoxy]acetyl]-[Arg17,Pro21,Pro27,Pro34 … (peptide)
peptide: K([AEEA-AEEA-γGlu-C20 diacid])CNTATCATQRLANFLRHSSPNFGAIPSSTNVGPNTY-NH2
modifications: disulfide 2-7; N-terminus assumed
SMILES: CC[C@H](C)[C@H](NC(=O)[C@H](C)NC(=O)CNC(=O)[C@H](Cc1ccccc1)NC(=O)[C@H](CC(N)=O)NC(=O)[C@@H]1CCCN1C(=O)[C@H](CO)NC(=O)[C@H](CO)NC(=O)[C@H](Cc1c[nH]cn1)NC(=O)[C@H](CCCNC(=N)N)NC(=O)[C@H](CC(C)C)NC(=O)[C@H](Cc1ccccc1)NC(=O)[C@H](CC(N)=O)NC(=O)[C@H](C)NC(=O)[C@H](CC(C)C)NC(=O)[C@H](CCCNC(=N)N)NC(=O)[C@H](CCC(N)=O)NC(=O)[C@@H](NC(=O)[C@H](C)NC(=O)[C@@H]1CSSC[C@H](NC(=O)[C@@H](N)CCCCNC(=O)COCCOCCNC(=O)COCCOCCNC(=O)CC[C@H](NC(=O)CCCCCCCCCCCCCCCCCCC(=O)O)C(=O)O)C(=O)N[C@@H](CC(N)=O)C(=O)N[C@@H]([C@@H](C)O)C(=O)N[C@@H](C)C(=O)N[C@@H]([C@@H](C)O)C(=O)N1)[C@@H](C)O)C(=O)N1CCC[C@H]1C(=O)N[C@@H](CO)C(=O)N[C@@H](CO)C(=O)N[C@H](C(=O)N[C@@H](CC(N)=O)C(=O)N[C@H](C(=O)NCC(=O)N1CCC[C@H]1C(=O)N[C@@H](CC(N)=O)C(=O)N[C@H](C(=O)N[C@@H](Cc1ccc(O)cc1)C(N)=O)[C@@H](C)O)C(C)C)[C@@H](C)O
notes: also called 98; compound 98
B4: N^ε1-[2-[2-[2-[[(4S)-4-carboxy-4-(19-carboxynonadecanoylamino)butanoyl]amino]ethoxy]ethoxy]acetyl]-[Ala14,Arg17,Pro21,Pro27,Pro31]-h-amylin (peptide)
peptide: K([AEEA-γGlu-C20 diacid])CNTATCATQRLAAFLRHSSPNFGAIPSSTPVGSNTY-NH2
modifications: disulfide 2-7; N-terminus assumed
SMILES: CC[C@H](C)[C@H](NC(=O)[C@H](C)NC(=O)CNC(=O)[C@H](Cc1ccccc1)NC(=O)[C@H](CC(N)=O)NC(=O)[C@@H]1CCCN1C(=O)[C@H](CO)NC(=O)[C@H](CO)NC(=O)[C@H](Cc1c[nH]cn1)NC(=O)[C@H](CCCNC(=N)N)NC(=O)[C@H](CC(C)C)NC(=O)[C@H](Cc1ccccc1)NC(=O)[C@H](C)NC(=O)[C@H](C)NC(=O)[C@H](CC(C)C)NC(=O)[C@H](CCCNC(=N)N)NC(=O)[C@H](CCC(N)=O)NC(=O)[C@@H](NC(=O)[C@H](C)NC(=O)[C@@H]1CSSC[C@H](NC(=O)[C@@H](N)CCCCNC(=O)COCCOCCNC(=O)CC[C@H](NC(=O)CCCCCCCCCCCCCCCCCCC(=O)O)C(=O)O)C(=O)N[C@@H](CC(N)=O)C(=O)N[C@@H]([C@@H](C)O)C(=O)N[C@@H](C)C(=O)N[C@@H]([C@@H](C)O)C(=O)N1)[C@@H](C)O)C(=O)N1CCC[C@H]1C(=O)N[C@@H](CO)C(=O)N[C@@H](CO)C(=O)N[C@H](C(=O)N1CCC[C@H]1C(=O)N[C@H](C(=O)NCC(=O)N[C@@H](CO)C(=O)N[C@@H](CC(N)=O)C(=O)N[C@H](C(=O)N[C@@H](Cc1ccc(O)cc1)C(N)=O)[C@@H](C)O)C(C)C)[C@@H](C)O
notes: also called 72; compound 72
B5: N^ε1-[2-[2-[2-[[(4S)-4-carboxy-4-(19-carboxynonadecanoylamino)butanoyl]amino]ethoxy]ethoxy]acetyl]-[Arg14,Arg17,Pro21,Pro27,Pro31]-h-amylin (peptide)
peptide: K([AEEA-γGlu-C20 diacid])CNTATCATQRLARFLRHSSPNFGAIPSSTPVGSNTY-NH2
modifications: disulfide 2-7; N-terminus assumed
SMILES: CC[C@H](C)[C@H](NC(=O)[C@H](C)NC(=O)CNC(=O)[C@H](Cc1ccccc1)NC(=O)[C@H](CC(N)=O)NC(=O)[C@@H]1CCCN1C(=O)[C@H](CO)NC(=O)[C@H](CO)NC(=O)[C@H](Cc1c[nH]cn1)NC(=O)[C@H](CCCNC(=N)N)NC(=O)[C@H](CC(C)C)NC(=O)[C@H](Cc1ccccc1)NC(=O)[C@H](CCCNC(=N)N)NC(=O)[C@H](C)NC(=O)[C@H](CC(C)C)NC(=O)[C@H](CCCNC(=N)N)NC(=O)[C@H](CCC(N)=O)NC(=O)[C@@H](NC(=O)[C@H](C)NC(=O)[C@@H]1CSSC[C@H](NC(=O)[C@@H](N)CCCCNC(=O)COCCOCCNC(=O)CC[C@H](NC(=O)CCCCCCCCCCCCCCCCCCC(=O)O)C(=O)O)C(=O)N[C@@H](CC(N)=O)C(=O)N[C@@H]([C@@H](C)O)C(=O)N[C@@H](C)C(=O)N[C@@H]([C@@H](C)O)C(=O)N1)[C@@H](C)O)C(=O)N1CCC[C@H]1C(=O)N[C@@H](CO)C(=O)N[C@@H](CO)C(=O)N[C@H](C(=O)N1CCC[C@H]1C(=O)N[C@H](C(=O)NCC(=O)N[C@@H](CO)C(=O)N[C@@H](CC(N)=O)C(=O)N[C@H](C(=O)N[C@@H](Cc1ccc(O)cc1)C(N)=O)[C@@H](C)O)C(C)C)[C@@H](C)O
notes: also called 64; compound 64
B6: N^ε1-[2-[2-[2-[[(4S)-4-carboxy-4-(19-carboxynonadecanoylamino)butanoyl]amino]ethoxy]ethoxy]acetyl]-[Arg14,Arg17,Pro21,Pro27]-h-amylin (peptide)
peptide: K([AEEA-γGlu-C20 diacid])CNTATCATQRLARFLRHSSPNFGAIPSSTNVGSNTY-NH2
modifications: disulfide 2-7; N-terminus assumed
SMILES: CC[C@H](C)[C@H](NC(=O)[C@H](C)NC(=O)CNC(=O)[C@H](Cc1ccccc1)NC(=O)[C@H](CC(N)=O)NC(=O)[C@@H]1CCCN1C(=O)[C@H](CO)NC(=O)[C@H](CO)NC(=O)[C@H](Cc1c[nH]cn1)NC(=O)[C@H](CCCNC(=N)N)NC(=O)[C@H](CC(C)C)NC(=O)[C@H](Cc1ccccc1)NC(=O)[C@H](CCCNC(=N)N)NC(=O)[C@H](C)NC(=O)[C@H](CC(C)C)NC(=O)[C@H](CCCNC(=N)N)NC(=O)[C@H](CCC(N)=O)NC(=O)[C@@H](NC(=O)[C@H](C)NC(=O)[C@@H]1CSSC[C@H](NC(=O)[C@@H](N)CCCCNC(=O)COCCOCCNC(=O)CC[C@H](NC(=O)CCCCCCCCCCCCCCCCCCC(=O)O)C(=O)O)C(=O)N[C@@H](CC(N)=O)C(=O)N[C@@H]([C@@H](C)O)C(=O)N[C@@H](C)C(=O)N[C@@H]([C@@H](C)O)C(=O)N1)[C@@H](C)O)C(=O)N1CCC[C@H]1C(=O)N[C@@H](CO)C(=O)N[C@@H](CO)C(=O)N[C@H](C(=O)N[C@@H](CC(N)=O)C(=O)N[C@H](C(=O)NCC(=O)N[C@@H](CO)C(=O)N[C@@H](CC(N)=O)C(=O)N[C@H](C(=O)N[C@@H](Cc1ccc(O)cc1)C(N)=O)[C@@H](C)O)C(C)C)[C@@H](C)O
notes: also called 82; compound 82

biological target: T1, human amylin receptor (amylin 3(a) …); assay: SPA displacement of 125I-rat amylin, hAmylin 3(a) receptor membranes
Method in brief: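 Membranes from BHK Amylin 3(a)/CRE-luc cells (35 ng/μL final) were mixed with SPA beads and test compounds in 50 mM Hepes pH 7.4 with 1 mM CaCl2, 5 mM MgCl₂, 0.1% OA and 0.02% Tween20. Incubation ran 120 min at 25° C with shaking; IC₅₀ came from one-site competition fitting.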

| Binder | IC50 [nM] |
| --- | --- |
| B1 | 0.568 |
| B2 | 0.166 |
| B3 | 0.091 |
| B4 | 0.172 |
| B5 | 0.444 |
| B6 | 0.636 |
